The subject of the data set is Escherichia coli TOP10. Nature of the data set: shrunken log2 fold change of peptide-encoding DNA abundance (4.5 h post-induction vs induction); higher = less antimicrobial activity (less host growth inhibition). Particulars: time post-induction: 4.5 h; library: site-saturation at positions 5, 18, 19, 20.

We go through 50 sequences from the supplement of paper PMC9112550, “Optimization of the antimicrobial peptide Bac7 by deep mutational scanning” (BMC Biology, 2022).
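Also: peptides expressed intracellularly from a pBAD plasmid library in pooled LB shake-flask culture, induced with 0.3% L-arabinose, DNA abundance read by NGS, three biological replicates, DESeq2 with apeglm shrinkage.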

Consider RRIRPRPPRLPRPRPRPGMSPRP, for which the “shrunken log2 fold change” value was 0.0989.

Regarding RRIRQRPPRLPRPRPRPTGFPRP, the “shrunken log2 fold change” value came out at 0.051.

Take RRIRLRPPRLPRPRPRPQLGPRP: the “shrunken log2 fold change” value is -0.0132.

Consider RRIRTRPPRLPRPRPRPIAEPRP, for which the “shrunken log2 fold change” value turned out to be 0.0307.

Consider RRIRWRPPRLPRPRPRPCTLPRP, for which the “shrunken log2 fold change” value is -0.842.

For RRIRHRPPRLPRPRPRPHTWPRP, the “shrunken log2 fold change” value was -0.301.

In the case of RRIRERPPRLPRPRPRPVQHPRP, the “shrunken log2 fold change” value was -0.402.

In the case of RRIRQRPPRLPRPRPRPDGSPRP, the “shrunken log2 fold change” value was -0.0176.

On to RRIRGRPPRLPRPRPRPSDWPRP, for which the “shrunken log2 fold change” value amounted to 0.251.

For RRIRDRPPRLPRPRPRPVHYPRP, the “shrunken log2 fold change” value turned out to be 0.0175.

As to RRIRHRPPRLPRPRPRPPKPPRP, the “shrunken log2 fold change” value worked out at 0.116.

With RRIRLRPPRLPRPRPRPYSTPRP, the “shrunken log2 fold change” value was -1.09.

For the sequence RRIRERPPRLPRPRPRPQIGPRP, the “shrunken log2 fold change” value is -0.0217.

In the case of RRIRVRPPRLPRPRPRPMFCPRP, the “shrunken log2 fold change” value was -0.0375.

As for RRIRPRPPRLPRPRPRPFPWPRP, the “shrunken log2 fold change” value is -0.0429.

In the case of RRIRYRPPRLPRPRPRPEYFPRP, the “shrunken log2 fold change” value was -0.744.

With RRIRIRPPRLPRPRPRPLQCPRP, the “shrunken log2 fold change” value turned out to be 0.0339.

For the sequence RRIRRRPPRLPRPRPRPNTAPRP, the “shrunken log2 fold change” value was 0.0812.

For RRIRNRPPRLPRPRPRPKVCPRP, the “shrunken log2 fold change” value is -0.0345.

As to RRIRRRPPRLPRPRPRPCCYPRP, the “shrunken log2 fold change” value was found to be 0.0352.

As for RRIRCRPPRLPRPRPRPVHMPRP, the “shrunken log2 fold change” value came out at 0.0385.

Take RRIRYRPPRLPRPRPRPDPKPRP: the “shrunken log2 fold change” value is -0.22.

For RRIRNRPPRLPRPRPRPPFDPRP, the “shrunken log2 fold change” value came to 0.141.

RRIRERPPRLPRPRPRPQGMPRP: the “shrunken log2 fold change” value was -0.284.

As for RRIRERPPRLPRPRPRPAPCPRP, the “shrunken log2 fold change” value came to 0.0086.

For the sequence RRIRERPPRLPRPRPRPIMCPRP, the “shrunken log2 fold change” value is -0.275.

Turning to RRIRHRPPRLPRPRPRPWKAPRP, the “shrunken log2 fold change” value stood at 0.00938.

In the case of RRIRTRPPRLPRPRPRPVFSPRP, the “shrunken log2 fold change” value is -0.648.

For the sequence RRIRFRPPRLPRPRPRPGVIPRP, the “shrunken log2 fold change” value was -0.356.

In the case of RRIRHRPPRLPRPRPRPWSRPRP, the “shrunken log2 fold change” value turned out to be 0.0245.

Regarding RRIRYRPPRLPRPRPRPNLEPRP, the “shrunken log2 fold change” value is -0.113.

As for RRIRFRPPRLPRPRPRPFDTPRP, the “shrunken log2 fold change” value is -0.486.

Turning to RRIRCRPPRLPRPRPRPHDDPRP, the “shrunken log2 fold change” value was -0.104.

On to RRIRLRPPRLPRPRPRPLLVPRP, for which the “shrunken log2 fold change” value was -0.12.

For RRIRMRPPRLPRPRPRPATYPRP, the “shrunken log2 fold change” value is 0.0281.

RRIRQRPPRLPRPRPRPVIWPRP: the “shrunken log2 fold change” value came to 0.124.

RRIRKRPPRLPRPRPRPSVGPRP: the “shrunken log2 fold change” value stood at 0.0485.

For RRIRLRPPRLPRPRPRPHFIPRP, the “shrunken log2 fold change” value was -0.249.

As for RRIRNRPPRLPRPRPRPTTQPRP, the “shrunken log2 fold change” value is -0.222.

Consider RRIRDRPPRLPRPRPRPQVHPRP, for which the “shrunken log2 fold change” value is -0.0385.

As for RRIRNRPPRLPRPRPRPQFDPRP, the “shrunken log2 fold change” value was determined as 0.152.

RRIRNRPPRLPRPRPRPCINPRP: the “shrunken log2 fold change” value is -0.548.

Regarding RRIRCRPPRLPRPRPRPQVCPRP, the “shrunken log2 fold change” value was -0.203.

As to RRIRERPPRLPRPRPRPDQTPRP, the “shrunken log2 fold change” value was -0.00664.

With RRIRLRPPRLPRPRPRPPYSPRP, the “shrunken log2 fold change” value was -0.125.

As for RRIRCRPPRLPRPRPRPTITPRP, the “shrunken log2 fold change” value is -0.44.

As to RRIRLRPPRLPRPRPRPMLRPRP, the “shrunken log2 fold change” value stood at 0.0543.

For RRIRNRPPRLPRPRPRPNDAPRP, the “shrunken log2 fold change” value was -0.221.

On to RRIRRRPPRLPRPRPRPFSLPRP, for which the “shrunken log2 fold change” value came to 0.0919.

With RRIRHRPPRLPRPRPRPEQFPRP, the “shrunken log2 fold change” value is 0.000995.
